Measured values from article PMC6988801, “Characterization of a Dimeric Arginase From Zymomonas mobilis ZM4” (Frontiers in Microbiology, 2019).
One block for each molecule: values may come before it.

How the values were obtained:
zmARG = molecular target: T1, zmARG (Zymomonas mobilis, UniProt Q5NQE9); assay: arginase activity assay kit, urea colorimetric at […] nm; format: biochemical; settings: read-out: % inhibition at 5 mM
T1 construct: gene ZMO0432; full length Met1-Lys290; E. coli BL21(DE3) Star, pSKB3, N-terminal His6 with TEV site (25 extra residues); GH left after cleavage; EDTA-dialysed; dimer 64 kDa

[1] = molecular target: the molecule itself; assay: AF4-MALS; asymmetrical flow field-flow fractionation with multi-angle light scattering; Eclipse DUALTEC AF4, DAWN Heleos II 18-angle MALS; Zimm model
purified protein = substrate: N=C(N)NCCC[C@H](N)C(=O)O; assay: purified protein; format: biochemical, Zymomonas mobilis; settings: Mn-dependent enzyme; metal, pH and temperature of the kinetic run not given

- inhibition at 5000 µM (zmARG): ~95%
Molecule: N[C@@H](CCCCB(O)O)C(=O)O [ABH, 2(S)-amino-6-boronohexanoic acid]

B1: arginase from Zymomonas mobilis ZM4 (zmARG) (enzyme, Zymomonas mobilis subsp. mobilis ZM4)
chain: GHMSSINKPLRLIFPQWQGGDNPPYYLGSQLLAWLSPDPKGAVEEVPVPKPTGEPLQEENGIVGRSILIDQLSEARQLIEKHTPDSLVVLGGDCLVSLAPFSWLLEKYKDKLGILWIDSHPDVQTPKEYKNAHAHVLGELMGNGDSDFTRTVKHPVSPQKIMIAGIHDPLPYEANFISEHKIQTCSPEQVRSGAQPVLDWIKNEKIEYLAIHIDLDVLDPHNFRSVLFAKPGRGQHDFGDVAEGKLNIPDVVKLANQAASISKAVGLTIAEHLPWDALNLKNMLEELPLIGK
notes: two additional amino acids left at the N-terminus after TEV cleavage of the vector-encoded His6 tag; arginase zmARG, product of the ZMO0432 gene of Zymomonas mobilis subsp. mobilis ZM4, Met1-Lys290, amplified from genomic DNA; Two zinc ions are modelled in the active site of each subunit in the crystal; A Se-Met substituted form (made in B834 (DE3)) was used for phasing only; also called ZMO0432 …
- stoichiometry N [1]: 2

B2: zmARG (Zymomonas mobilis subsp. mobilis ZM4 = ATCC 31821) (protein)
chain: MSSINKPLRLIFPQWQGGDNPPYYLGSQLLAWLSPDPKGAVEEVPVPKPTGEPLQEENGIVGRSILIDQLSEARQLIEKHTPDSLVVLGGDCLVSLAPFSWLLEKYKDKLGILWIDSHPDVQTPKEYKNAHAHVLGELMGNGDSDFTRTVKHPVSPQKIMIAGIHDPLPYEANFISEHKIQTCSPEQVRSGAQPVLDWIKNEKIEYLAIHIDLDVLDPHNFRSVLFAKPGRGQHDFGDVAEGKLNIPDVVKLANQAASISKAVGLTIAEHLPWDALNLKNMLEELPLIGK
notes: full length Met1-Lys290; E. coli BL21(DE3) Star, pSKB3, N-terminal His6 with TEV site (25 extra residues); GH left after cleavage; EDTA-dialysed; dimer 64 kDa
- Km (purified protein): 6.8 mM
- kcat (purified protein): 302 s^–1
